This note sets out measurements from US20260015418A1 (ABL BIO, published 2026).

Where a chain is given by its changes, count along the chain named.

Experiment [1] concerns the target T1, human ROR1 protein (ROR1-His; Sino Biological, Catalog #13968-H08H) (human, UniProt Q01973 30-406).
T1 construct: extracellular domain; Bought protein; also called human recombinant ROR1 protein
The experiment can be described thus: SACE ELISA on human ROR1-His. As to the method: (§1) The binding affinity of the anti-ROR1 antibody-antigen was evaluated using an ELISA-based solution binding assay. Specifically, 96-well microtiter plates (Nunc-Immuno Plates, NUNC) were coated with ROR1 protein (ROR1-His; sino biological, Catalog #13968-H08H) at a concentration of 1 μg/ml in PBS solution at 4° C. for 16 hours, and non-specific binding sites were blocked with 1% (v/v) BSA (bovine serum albumin) for 2 hours.
(§2) Subsequently, on the 96-well microtiter plates, anti-ROR1 antibodies at concentrations stated in FIGS. 1a to 1c were added to the microtiter plates, and their binding capabilities were analyzed by ELISA as follows. Specifically, after incubating at 37° C. for 2 hours, the plates were washed five times with PBS containing 0.05% (v/v) Tween 20, then the HRP-conjugated Fab polyclonal antibody reagent (Pierce, Catalog #31414) was diluted at a 1:30,000 ratio and added to the washed microtiter plates, then reacted for 1 hour at 37° C., then detected the bound anti-ROR1 antibodies. After reaction, the color was developed using TMB (tetramethylbenzidine, Sigma, T0440). The enzymatic reaction was stopped with 0.5 mol/L sulfuric acid, and the absorbance was read at 450 nm and 650 nm using a microplate reader (Molecular Devices). […]
Background: ELISA stands for enzyme-linked immunosorbent assay.

Experiment [2] concerns the target T1, human ROR1 protein (ROR1-His; Sino …). Briefly: ELISA, plate coated with ROR1-His (1 ug/ml), bound antibody detected with HRP-conjugated anti-Fab polyclonal antibody, OD at 450 nm; lower graph and table. The protocol: as §1
(§3) Subsequently, on the 96-well microtiter plates, anti-ROR1 antibodies at concentrations stated in FIGS. 1a to 1c were added to the microtiter plates, and their binding capabilities were analyzed by ELISA as follows. Specifically, after incubating at 37° C. for 2 hours, the plates were washed five times with PBS containing 0.05% (v/v) Tween 20, then the HRP-conjugated Fab polyclonal antibody reagent (Pierce, Catalog #31414) was diluted at a 1:30,000 ratio and added to the washed microtiter plates, then reacted for 1 hour at 37° C., then detected the bound anti-ROR1 antibodies. After reaction, the color was developed using TMB (tetramethylbenzidine, Sigma, T0440). The enzymatic reaction was stopped with 0.5 mol/L sulfuric acid, and the absorbance was read at 450 nm and 650 nm using a microplate reader (Molecular Devices).

Experiment [3] has the same target. Briefly: ELISA, plate coated with ROR1-His (1 ug/ml), bound antibody detected with HRP-conjugated anti-Fab polyclonal antibody, OD at 450 nm. The protocol:
as §1, §3

Experiment [4] shares this target. The experiment can be described thus: ELISA, plate coated with ROR1-His (1 ug/ml), bound antibody detected with HRP-conjugated anti-Fab polyclonal antibody, OD at 450 nm; upper graph and table. As to the method: as §1, §3
Experiment [5] has the same target. The experiment can be described thus: ELISA, plate coated with ROR1-His (1 ug/ml), bound antibody detected with HRP-conjugated anti-Fab polyclonal antibody, OD at 450 nm; lower graph and table. The protocol: as §1, §3
This is another data set of the same source.

Experiment [6] shares this target. The experiment can be described thus: SACE ELISA on human ROR1-His; antibody stored 2 weeks at 37°C. The protocol: as §1, §2
For experiment [7] the target is unchanged. The experiment can be described thus: SACE ELISA on human ROR1-His; antibody stored 2 weeks at 4°C; BA6 IgG (WT), stored at 4° C. The protocol: as §1, §2
Experiment [8] has the same target. Briefly: ELISA, plate coated with ROR1-His (1 ug/ml), bound antibody detected with HRP-conjugated anti-Fab polyclonal antibody, OD at 450 nm; upper graph and table. As to the method: as §1, §3
The source holds these as a separate data set.

The target in experiment [9] is T2, human B7-H3 on CHO-huROR1-huB7-H3 cells (human, UniProt Q5ZPR3 29-534).
T2 construct: whole, on cells; also called cell surface B7-H3
T2 sequence (looked up): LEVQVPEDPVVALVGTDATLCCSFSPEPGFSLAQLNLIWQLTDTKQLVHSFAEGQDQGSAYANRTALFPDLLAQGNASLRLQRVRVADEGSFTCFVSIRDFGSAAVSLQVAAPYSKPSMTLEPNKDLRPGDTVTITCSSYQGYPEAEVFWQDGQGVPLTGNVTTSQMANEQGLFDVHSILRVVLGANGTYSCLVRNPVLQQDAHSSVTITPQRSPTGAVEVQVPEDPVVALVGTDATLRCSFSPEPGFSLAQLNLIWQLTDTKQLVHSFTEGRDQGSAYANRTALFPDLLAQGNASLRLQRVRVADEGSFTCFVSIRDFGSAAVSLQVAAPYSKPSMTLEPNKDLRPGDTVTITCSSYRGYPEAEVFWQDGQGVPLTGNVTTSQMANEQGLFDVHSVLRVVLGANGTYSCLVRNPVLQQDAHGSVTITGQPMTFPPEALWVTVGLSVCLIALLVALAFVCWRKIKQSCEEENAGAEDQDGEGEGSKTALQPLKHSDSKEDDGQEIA
Briefly: flow cytometry on CHO-huROR1-huB7-H3 cells, FITC anti-human IgG, MFI over secondary antibody only. The source says: To evaluate the cell-binding ability of the anti-ROR1/B7-H3 bispecific antibody, cells expressing both ROR1 and B7-H3 were used to compare the cell-binding ability of the bispecific antibody with that of the monospecific antibodies.
As a cell line for the comparison of cell-binding ability, CHO-huROR1-huB7-H3 cell line (obtained by transfecting the ROR1-CHO recombinant cell line (BPS Bioscience) with the human B7-H3 gene (Origene) and selecting for the desired gene-inserted single cells using G418), which stably transfected the human ROR1 and human B7-H3 gene to artificially overexpress both human ROR1 and human B7-H3 proteins were used, and analysis was performed using a flow cytometer (LSRFortessa X-20, BD Biosciences). Specifically, after dissociating and washing the overexpressing cell line with PBS, the cell number was counted, and the cells were seeded at a density of 2×10⁵ cells per well into a V-bottom 96-well plate (96 Well Plate-RV, Bioneer, 910D09). Antibodies diluted 4-fold starting from 100 nM in 1% BSA solution were added at 100 μL per well to the centrifuged cells and incubated at 4° C. for 1 hour. […] After the reaction, the cells were washed twice with the same buffer, resuspended in 100 μL of PBS, and analyzed using a FACS instrument. A total of 10,000 cells were detected per measurement, and the data was analyzed using FlowJo software. […]
For orientation: A flow cytometer gives signals particle by particle.

Experiment [10] has as its target T1, human ROR1 protein (ROR1-His; Sino …). The experiment can be described thus: ELISA, plate coated with ROR1-His (1 ug/ml), bound antibody detected with HRP-conjugated anti-Fab polyclonal antibody, OD at 450 nm; upper table (the graph's legend names the third curve M8_N97G). The protocol: as §1, §3

B1: BA6 antibody (WT) (antibody, V domains shown)
VH: EVQLLESGGGLVQPGGSLRLSCAASGFTFSNYDMSWVRQAPGKGLEWVSAIYHSGSSKYYADSVKGRFTISRDNSKNTLYLQMNSLRAEDTAVYYCARGGNGAWDTGFDYWGQGTLVTVSS
VL: QSVLTQPPSASGTPGQRVTISCSGSSSNIGSNDVSWYQQLPGTAPKLLIYYDNNRPSGVPDRFSGSKSGTSASLAISGLRSEDEADYYCGAWDDSLSGYVFGGGTKLTVL
notes: Anti-ROR1 antibody from WO2019-225992 A1, said to be based on IgG1; only the variable domains are tied to the monospecific IgG; also called BA6 IgG (WT); parental clone
Broadly, the EC50 is the concentration at which the effect is half-maximal. A higher EC50 goes with a need for much substance. Take B1: the “Ratio (EC50, 4°C sample against 37°C sample)” value in experiment [1] was 83.1%. The EC50 is 0.293 nM in experiment [2]; 0.293 nM in experiment [3]; 1 nM in [4]; 0.215 nM in experiment [5]; 0.261 nM in experiment [6]; 0.217 nM in [7]. The molecule also came in with an EC50 in experiment [8] of 0.707 nM.

B2: BA6 IgG(NA) (antibody, V domains shown)
VH: B1 VH
VL: QSVLTQPPSASGTPGQRVTISCSGSSSNIGSNDVSWYQQLPGTAPKLLIYYDNNRPSGVPDRFSGSKSGTSASLAISGLRSEDEADYYCGAWDDSLSGYVFGGGTKLTVLG
B2: the half-maximal effective concentration (EC50) in experiment [2] is 0.299 nM.

B3: B5 (antibody, V domains shown)
VH: EVQLLESGGGLVQPGGSLRLSCAASGFTFSDYAMSWVRQAPGKGLEWVSSISSGSGSIYYADSVKGRFTISRDNSKNTLYLQMNSLRAEDTAVYYCAKNLIPLDYWGQGTLVTVSS
VL: B1 VL with D33A, D52N, N53S, N54H, A91S, D94A, S97N, G98A
notes: also called anti-B7-H3 monospecific antibody B5; anti-B7-H3 antibody clone B5 (WO2019-226017 A1)
For orientation: EC50 (read off the curve) means the midpoint of the concentration-response curve. B3: the “EC50 (read off the curve)” value in experiment [9] is roughly 1 nM.

B4: M7 (PTM mutant of BA6 IgG) (antibody, V domains shown)
VH: B1 VH with G102R
VL: B1 VL
notes: IgG of BA6 with one CDRH3 mutation
B4: the midpoint of the response in experiment [2], the EC50, lay at 12.5 nM.

B5: M8 (PTM mutant of BA6 IgG) (antibody, V domains shown)
VH: B1 VH with N101G
VL: B1 VL
notes: IgG of BA6 with one CDRH3 mutation; Kabat H97 (same column as M9)
In turn, B5 displayed an EC50 in [8] of 7.56 nM.

B6: M10 (PTM mutant of BA6 IgG) (antibody, V domains shown)
VH: B1 VH with N101Y
VL: B1 VL
notes: as for B5
As to B6, the EC50 in experiment [8] turned out to be 2.76 nM.

B7: M6 (PTM mutant of BA6 IgG) (antibody, V domains shown)
VH: B1 VH with G102V
VL: B1 VL
notes: as for B4
Take B7: the response in experiment [3] was half-maximal at 0.955 nM (EC50).

B8: M9 (PTM mutant of BA6 IgG) (antibody, V domains shown)
VH: B1 VH with N101S
VL: B1 VL
notes: IgG of BA6 with one CDRH3 mutation; Kabat H97
Regarding B8, the EC50 in experiment [10] was determined as 1.08 nM.

B9: M3 (PTM mutant of BA6 IgG) (antibody, V domains shown)
VH: B1 VH
VL: B1 VL with D52E
notes: IgG of BA6 with one mutation; Kabat L51
Take B9: the EC50 turned out to be 0.333 nM in experiment [3], 0.755 nM in [4], 0.189 nM in [5] and 0.478 nM in [8].

B10: M1 (PTM mutant of BA6 IgG) (antibody, V domains shown)
VH: B1 VH
VL: B1 VL with D52A
notes: IgG of BA6 with one mutation
In experiment [3], B10 registered an EC50 of 0.326 nM.

B11: M2 (PTM mutant of BA6 IgG) (antibody, V domains shown)
VH: B1 VH
VL: B1 VL with D52T
notes: as for B9
Regarding B11, the EC50 in [3] was 10.2 nM.

B12: M5 (PTM mutant of BA6 IgG) (antibody, V domains shown)
VH: B1 VH with G102Y
VL: B1 VL
notes: as for B4
In [3], B12 came in with an EC50 of 3.27 nM.

B13: M4 (PTM mutant of BA6 IgG) (antibody, V domains shown)
VH: B1 VH
VL: B1 VL with D52S
notes: as for B9
On to B13, for which the response in [3] was half-maximal at 10.2 nM (EC50).
